This is an account of results in publication PMC12288907 (JCI Insight, 2025).

Residue numbers refer to the chain shown, from its start.

The target of experiment [1] is recombinant soluble trimeric H3 HA of A/Hong Kong/1/1968 H3N2 (HK68 H3) (Influenza A virus A/Hong Kong/1/1968 …, UniProt Q91MA7). Kind of experiment: ELISA. To be noted: both partners purified. Background: An ELISA detects its analyte on a solid surface through an enzyme-linked reagent.
Experiment [2] addresses recombinant soluble trimeric H3 HA of A/Hong Kong/1/1968 H3N2 (Influenza A virus A/Hong Kong/1/1968 …, UniProt Q91MA7). The experiment in a line: ELISA. To be noted: both partners purified.

Chain of recombinant soluble trimeric H3 HA of A/Hong Kong/1/1968 H3N2 (Q91MA7 17-530): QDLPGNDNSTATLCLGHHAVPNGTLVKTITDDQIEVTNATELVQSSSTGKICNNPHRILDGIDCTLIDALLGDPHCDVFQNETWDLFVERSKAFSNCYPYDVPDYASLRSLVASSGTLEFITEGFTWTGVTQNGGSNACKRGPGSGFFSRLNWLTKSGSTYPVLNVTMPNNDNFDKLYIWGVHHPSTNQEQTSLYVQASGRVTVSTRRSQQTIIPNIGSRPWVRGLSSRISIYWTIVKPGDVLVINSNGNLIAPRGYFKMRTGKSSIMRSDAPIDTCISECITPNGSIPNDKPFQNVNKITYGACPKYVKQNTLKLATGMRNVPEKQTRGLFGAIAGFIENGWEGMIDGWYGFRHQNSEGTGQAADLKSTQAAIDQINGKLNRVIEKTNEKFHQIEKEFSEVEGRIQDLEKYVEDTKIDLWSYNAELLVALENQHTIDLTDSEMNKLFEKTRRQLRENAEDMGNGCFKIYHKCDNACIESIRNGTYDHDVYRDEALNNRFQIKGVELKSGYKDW
Chain of recombinant soluble trimeric H3 HA of A/Hong Kong/1/1968 H3N2 (HK68 H3) (Q91MA7 17-530): as above

B1: recombinant H7-235 IgG1 (rH7-235 IgG1) (antibody, V domains shown)
VH: QVQLVESGGGVVQPGESLRLSCAASGFAFRTYGMHWVRQAPGKGLEWVGVIWYDGSNKYYGDSVKGRFTISRDNSQNTLYLQMNSLRAEDTAVYYCARNGERWRVEDYYYGMDVWGQGTLVTVSS
VL: EIVMTQSPLSLPVTPGEPASISCRSSQSLLHSNAHNYLDWYLQKPGQSPQLLIYLGSNRASGVPDRFSGSGSGTDFTLKISRVEAEDVGIYYCMQALQTPITFGQGTRLEIK
notes: IgG1; also called rH7-235 mAb; mAb H7-235; copies: 2 + 2
Take B1: in experiment [1], the binding result was “no binding”.

B2: rH7-235 IgG1 (recombinant human monoclonal antibody H7-235) (antibody, V domains shown)
VH: B1 VH
VL: B1 VL
notes: also called mAb H7-235; source: Expi293F, transient transfection, purified (MabSelect Sure)
Consider B2, for which the binding result in experiment [2] is “no binding (tested: >10,000 ng/mL)”.

B3: rH7-235rev IgG1 (germline revertant form of rH7-235 IgG) (antibody, V domains shown)
VH: B1 VH with E16R, A28T, R30S, T31S, G49A, G61A, Q76K
VL: not shown
In the case of B3, in experiment [2], the binding result is recorded as “no binding (tested: >10,000 ng/mL)”.
